Here are results for one molecule from patent US10688077B2, “Inflammasome activation in myelodysplastic syndromes” (H. Lee Moffitt Cancer Center and Research Institute, Inc., priority 2015, dated 2020).

In one test the test system is lower-risk MDS BM-MNC. The test is described as follows: qPCR of pyroptosis-related gene expression in lower-risk MDS BM-MNC. Type of test: cell-based, human. The following applies: 24 hours, versus autologous BM plasma alone, n=5. On the procedure:
PCR RNA was isolated from BM-MNC using the RNeasy Mini Kit (Qiagen). cDNA was produced using the iScript cDNA Synthesis Kit (Bio-Rad). Sequences for primers can be found in Table 1. GAPDH mRNA was used for transcript normalization. cDNA was amplified using the iQ SYBR Green Supermix and the CFX96 Real-Time PCR Detection System (Bio-Rad). PCR conditions were as follows: 10 minutes at 95° C., followed by 40 cycles of amplification (15 seconds at 95° C. and 1 minute at 60° C.). Relative gene expression was calculated using the […] method.
On the technique in general: Quantitative PCR measures a nucleic acid by following its amplification.

For another test, the system named is MDS BM-MNC. The test is described as follows: Pyroptosis flow cytometry panel, MDS BM-MNC incubated with autologous BM plasma. Type of test: cell-based, human. The protocol:
For human samples, treated and untreated BM-MNC were incubated overnight in IMDM, supplemented with 10% autologous BM plasma. Subsequently, cells were harvested, washed twice in 1×PBS, and stained with LIVE/DEAD Violet fluorescent reactive dye according to the manufacturer's protocol (Life Technologies). Cells were resuspended in 1×PBS with 2% BSA, and incubated at room temperature for 15 minutes to block non-specific binding. After washing, cells were stained with 30×FAM-FLICA® Caspase-1 and Caspase-3/7 solution at a ratio of 1:30 for 2 hours at 37° C. Cells were washed and stained for cell surface receptors using CD38:PE-CF594, CD33:BV711, CD34:APC (BD Biosciences), and CD71:PE-Cyanine7 (eBioscience). All antibodies were diluted 1:20, and cells were stained for 30 minutes at 4° C. Cells were washed, resuspended in 1× binding buffer, and stained with Annexin-V:Cy5.5 at a dilution of 1:20 for 15 minutes at room temperature (BD Biosciences). 1× binding buffer was added to a final volume of 400 μL. Sample acquisitions were carried out using a BD LSR II flow cytometer and FACSDiva software (BD Biosciences). Calibration of the flow cytometer was carried out prior to each experiment using Rainbow Mid-Range Fluorescent Particles (BD Biosciences). To establish fluorescence compensation settings, ArC Amine Reactive Compensation Beads were used for LIVE/DEAD Violet staining (Life Technologies), and BD CompBead Plus Anti-Mouse Ig κ/Negative Control (BSA) Compensation Plus Particles were used for surface receptor conjugates (BD Biosciences). Data were analyzed using FlowJo 9.7.5 software (FlowJo, LLC, Ashland, Oreg.).
Background: In flow cytometry, cells or beads pass a laser one at a time.

B1: CD33-IgG1: S100A9 high-affinity chimeric (CD33-IgG1) decoy receptor (protein)
chain: DPNFWLQVQESVTVQEGLCVLVPCTFFHPIPYYDKNSPVHGYWFREGAIISRDSPVATNKLDQEVQEETQGRFRLLGDPSRNNCSLSIVDARRRDNGSYFFRMERGSTKYSYKSPQLSVHVTDLTHRPKILIPGTLEPGHSKNLTCSVSWACEQGTPPIFSWLSAAPTSLGPRTTHSSVLIITPRPQDHGTNLTCQVKFAGAGVTTERTIQLNVTYVPQNPTTGIFPGDGSGKQETRAGVVH
modifications: left off: a dimerising Fc or GST
Consider B1, for which, in the test with lower-risk MDS BM-MNC, the CASP1 expression entry is recorded as “reduced”, the CASP3 expression result is given as “markedly reduced”, the IL-1β expression entry is on record as “reduced” and the IL-18 expression result is “reduced”. Also, the NLRP3 expression result in the test with lower-risk MDS BM-MNC is “reduced”. For the same molecule, the “reduction of the fraction of pyroptotic cells, maximum lineage-specific change, CD33+ cells” value in the test on MDS BM-MNC (CD33+ immature myeloids, 0.5 μg CD33-IgG1 or 0.1 μM IRAK4 inhibitor, 24 hours, autologous BM plasma, n=4) is recorded as 68%. The “reduction of the fraction of pyroptotic cells, maximum lineage-specific change, CD71+ cells” value in the test with MDS BM-MNC (CD71+ erythroids, 0.5 μg CD33-IgG1 or 0.1 μM IRAK4 inhibitor, 24 hours, autologous BM plasma, n=4) was determined as 64%. The “fraction of pyroptotic cells across all lineages studied” value in the test with MDS BM-MNC (MDS BM-MNC with autologous BM plasma (FIG. 20)) is on record as “marked reduction”. For the same molecule, in the test on MDS BM-MNC (progenitor cells (CD34+CD38+), 0.5 μg CD33-IgG1 or 0.1 μM IRAK4 inhibitor, 24 hours, autologous BM plasma, n=4), the “reduction of the fraction of pyroptotic cells, maximum lineage-specific change, progenitor cells” value is given as 23%. Besides, the MDSC fraction entry in the test with MDS BM-MNC (short-term treatment) is on record as “significantly reduced”. The “reduction of the fraction of pyroptotic cells, maximum lineage-specific change, stem cells” value with MDS BM-MNC (stem cells (CD34+CD38-), 0.5 μg CD33-IgG1 or 0.1 μM IRAK4 inhibitor, 24 hours, autologous BM plasma, n=4) is given as 44%.
